Consider 16 molecules from patent US20180155451A1 (published 2018).

To fix the notation:
B1: GpH7-B3 variant S298_03V/GpL16-k0 (antibody, human IgG1, kappa)
heavy: not shown
light: DIVMTQSPLSLPVTPGEPASISCQASESLVHSNRNTYLHWYLQKPGQSPQLLIYKVSNRFSGVPDRFSGSGSGTDFTLKISRVEAEDVGVYYCSQNTHVPPTFGQGTKVEIERTVAAPSVFIFPPSDEQLKSGTASVVCLLNNFYPREAKVQWKVDNALQSGNSQESVTEQDSKDSTYSLSSTLTLSKADYEKHKVYACEVTHQGLSSPVTKSFNRGEC
notes: mutation in both H chains; also called Ho Ab S298_03V; S298V
B2: GpH7-B3 variant S298_07I/GpL16-k0 (antibody, human IgG1, kappa)
heavy: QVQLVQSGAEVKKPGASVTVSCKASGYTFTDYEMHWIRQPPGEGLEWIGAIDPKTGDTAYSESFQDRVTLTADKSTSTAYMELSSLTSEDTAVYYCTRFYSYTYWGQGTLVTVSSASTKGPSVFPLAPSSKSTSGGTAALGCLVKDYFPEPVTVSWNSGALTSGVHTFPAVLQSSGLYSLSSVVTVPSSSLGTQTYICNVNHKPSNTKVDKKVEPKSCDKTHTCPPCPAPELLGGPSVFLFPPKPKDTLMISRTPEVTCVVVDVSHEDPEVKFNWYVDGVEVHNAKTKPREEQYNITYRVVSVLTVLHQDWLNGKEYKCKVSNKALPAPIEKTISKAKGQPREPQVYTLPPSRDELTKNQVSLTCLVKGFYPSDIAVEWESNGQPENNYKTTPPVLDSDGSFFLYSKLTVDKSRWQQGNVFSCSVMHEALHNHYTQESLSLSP
light: DIVMTQSPLSLPVTPGEPASISCQASESLVHSNRNTYLHWYLQKPGQSPQLLIYKVSNRFSGVPDRFSGSGSGTDFTLKISRVEAEDVGVYYCSQNTHVPPTFGQGTKVEIERTVAAPSVFIFPPSDEQLKSGTASVVCLLNNFYPREAKVQWKVDNALQSGNSQESVTEQDSKDSTYSLSSTLTLSKADYEKHKVYACEVTHQGLSSPVTKSFNRGEC
notes: mutation in both H chains; also called Ho Ab S298_07I; S298I
B3: GpH7-B3 variant S298_10E/GpL16-k0 (antibody, human IgG1, kappa)
heavy: not shown
light: DIVMTQSPLSLPVTPGEPASISCQASESLVHSNRNTYLHWYLQKPGQSPQLLIYKVSNRFSGVPDRFSGSGSGTDFTLKISRVEAEDVGVYYCSQNTHVPPTFGQGTKVEIERTVAAPSVFIFPPSDEQLKSGTASVVCLLNNFYPREAKVQWKVDNALQSGNSQESVTEQDSKDSTYSLSSTLTLSKADYEKHKVYACEVTHQGLSSPVTKSFNRGEC
notes: mutation in both H chains; also called Ho Ab S298_10E; S298E
B4: GpH7-B3 variant S298_16H/GpL16-k0 (antibody, human IgG1, kappa)
heavy: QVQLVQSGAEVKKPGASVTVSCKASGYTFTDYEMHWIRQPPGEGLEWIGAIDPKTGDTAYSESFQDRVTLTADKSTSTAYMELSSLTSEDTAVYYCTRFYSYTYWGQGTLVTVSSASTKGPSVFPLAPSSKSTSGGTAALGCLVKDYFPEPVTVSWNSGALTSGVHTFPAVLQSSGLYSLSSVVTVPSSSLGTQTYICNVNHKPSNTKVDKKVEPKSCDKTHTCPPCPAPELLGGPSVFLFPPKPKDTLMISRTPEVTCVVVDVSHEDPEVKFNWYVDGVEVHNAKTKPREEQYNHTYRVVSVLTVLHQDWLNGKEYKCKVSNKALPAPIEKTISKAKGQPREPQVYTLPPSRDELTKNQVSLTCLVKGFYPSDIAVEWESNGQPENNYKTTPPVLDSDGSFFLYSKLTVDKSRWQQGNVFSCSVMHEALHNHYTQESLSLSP
light: DIVMTQSPLSLPVTPGEPASISCQASESLVHSNRNTYLHWYLQKPGQSPQLLIYKVSNRFSGVPDRFSGSGSGTDFTLKISRVEAEDVGVYYCSQNTHVPPTFGQGTKVEIERTVAAPSVFIFPPSDEQLKSGTASVVCLLNNFYPREAKVQWKVDNALQSGNSQESVTEQDSKDSTYSLSSTLTLSKADYEKHKVYACEVTHQGLSSPVTKSFNRGEC
notes: mutation in both H chains; also called Ho Ab S298_16H; S298H
B5: GpH7-B3 variant S298_12R/GpL16-k0 (antibody, human IgG1, kappa)
heavy: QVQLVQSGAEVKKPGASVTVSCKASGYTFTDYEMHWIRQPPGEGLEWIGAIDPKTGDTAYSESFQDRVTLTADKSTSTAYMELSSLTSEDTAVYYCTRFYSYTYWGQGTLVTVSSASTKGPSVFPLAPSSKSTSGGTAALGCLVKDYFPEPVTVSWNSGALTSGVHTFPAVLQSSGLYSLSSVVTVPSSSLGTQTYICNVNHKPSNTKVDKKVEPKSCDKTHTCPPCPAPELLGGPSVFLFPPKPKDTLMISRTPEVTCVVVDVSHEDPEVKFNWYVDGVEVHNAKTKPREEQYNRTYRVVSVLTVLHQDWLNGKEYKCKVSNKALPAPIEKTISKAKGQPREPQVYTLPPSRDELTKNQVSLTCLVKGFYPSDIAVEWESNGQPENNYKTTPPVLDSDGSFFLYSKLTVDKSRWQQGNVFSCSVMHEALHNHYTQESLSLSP
light: DIVMTQSPLSLPVTPGEPASISCQASESLVHSNRNTYLHWYLQKPGQSPQLLIYKVSNRFSGVPDRFSGSGSGTDFTLKISRVEAEDVGVYYCSQNTHVPPTFGQGTKVEIERTVAAPSVFIFPPSDEQLKSGTASVVCLLNNFYPREAKVQWKVDNALQSGNSQESVTEQDSKDSTYSLSSTLTLSKADYEKHKVYACEVTHQGLSSPVTKSFNRGEC
notes: mutation in both H chains; also called Ho Ab S298_12R; S298R
B6: GpH7-B3 variant S298_08L/GpL16-k0 (antibody, human IgG1, kappa)
heavy: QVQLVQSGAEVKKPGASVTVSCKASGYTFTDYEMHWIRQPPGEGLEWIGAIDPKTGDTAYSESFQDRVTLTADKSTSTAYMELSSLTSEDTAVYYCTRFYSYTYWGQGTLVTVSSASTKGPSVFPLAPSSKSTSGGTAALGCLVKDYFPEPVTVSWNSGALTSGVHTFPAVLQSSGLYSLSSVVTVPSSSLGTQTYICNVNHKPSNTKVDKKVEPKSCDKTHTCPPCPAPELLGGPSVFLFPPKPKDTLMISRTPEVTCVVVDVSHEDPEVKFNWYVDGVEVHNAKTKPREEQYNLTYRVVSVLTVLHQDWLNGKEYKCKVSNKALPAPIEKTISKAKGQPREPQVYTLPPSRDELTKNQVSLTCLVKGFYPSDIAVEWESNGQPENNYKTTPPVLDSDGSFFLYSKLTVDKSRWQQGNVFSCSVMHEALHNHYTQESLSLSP
light: DIVMTQSPLSLPVTPGEPASISCQASESLVHSNRNTYLHWYLQKPGQSPQLLIYKVSNRFSGVPDRFSGSGSGTDFTLKISRVEAEDVGVYYCSQNTHVPPTFGQGTKVEIERTVAAPSVFIFPPSDEQLKSGTASVVCLLNNFYPREAKVQWKVDNALQSGNSQESVTEQDSKDSTYSLSSTLTLSKADYEKHKVYACEVTHQGLSSPVTKSFNRGEC
notes: mutation in both H chains; also called Ho Ab S298_08L; S298L
B7: GpH7-B3 variant S298_06M/GpL16-k0 (antibody, human IgG1, kappa)
heavy: not shown
light: DIVMTQSPLSLPVTPGEPASISCQASESLVHSNRNTYLHWYLQKPGQSPQLLIYKVSNRFSGVPDRFSGSGSGTDFTLKISRVEAEDVGVYYCSQNTHVPPTFGQGTKVEIERTVAAPSVFIFPPSDEQLKSGTASVVCLLNNFYPREAKVQWKVDNALQSGNSQESVTEQDSKDSTYSLSSTLTLSKADYEKHKVYACEVTHQGLSSPVTKSFNRGEC
notes: mutation in both H chains; also called Ho Ab S298_06M; S298M
B8: GpH7-B3 variant S324_03V/GpL16-k0 (antibody, human IgG1, kappa)
heavy: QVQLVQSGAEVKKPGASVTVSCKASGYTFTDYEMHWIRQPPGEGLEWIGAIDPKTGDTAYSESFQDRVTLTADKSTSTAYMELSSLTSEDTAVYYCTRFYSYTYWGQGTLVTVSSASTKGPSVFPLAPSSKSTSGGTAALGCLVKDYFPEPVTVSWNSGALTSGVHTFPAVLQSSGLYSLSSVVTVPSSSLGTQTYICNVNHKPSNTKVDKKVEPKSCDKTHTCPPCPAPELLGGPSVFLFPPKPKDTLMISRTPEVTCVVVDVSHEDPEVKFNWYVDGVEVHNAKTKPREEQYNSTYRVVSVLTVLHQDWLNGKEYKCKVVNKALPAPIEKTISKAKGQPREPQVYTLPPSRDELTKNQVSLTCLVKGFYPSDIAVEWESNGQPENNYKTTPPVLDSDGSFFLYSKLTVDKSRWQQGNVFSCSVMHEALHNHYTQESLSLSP
light: DIVMTQSPLSLPVTPGEPASISCQASESLVHSNRNTYLHWYLQKPGQSPQLLIYKVSNRFSGVPDRFSGSGSGTDFTLKISRVEAEDVGVYYCSQNTHVPPTFGQGTKVEIERTVAAPSVFIFPPSDEQLKSGTASVVCLLNNFYPREAKVQWKVDNALQSGNSQESVTEQDSKDSTYSLSSTLTLSKADYEKHKVYACEVTHQGLSSPVTKSFNRGEC
notes: mutation in both H chains; also called Ho Ab S324_03V; S324V
B9: GpH7-B3 variant S298_19Q/GpL16-k0 (antibody, human IgG1, kappa)
heavy: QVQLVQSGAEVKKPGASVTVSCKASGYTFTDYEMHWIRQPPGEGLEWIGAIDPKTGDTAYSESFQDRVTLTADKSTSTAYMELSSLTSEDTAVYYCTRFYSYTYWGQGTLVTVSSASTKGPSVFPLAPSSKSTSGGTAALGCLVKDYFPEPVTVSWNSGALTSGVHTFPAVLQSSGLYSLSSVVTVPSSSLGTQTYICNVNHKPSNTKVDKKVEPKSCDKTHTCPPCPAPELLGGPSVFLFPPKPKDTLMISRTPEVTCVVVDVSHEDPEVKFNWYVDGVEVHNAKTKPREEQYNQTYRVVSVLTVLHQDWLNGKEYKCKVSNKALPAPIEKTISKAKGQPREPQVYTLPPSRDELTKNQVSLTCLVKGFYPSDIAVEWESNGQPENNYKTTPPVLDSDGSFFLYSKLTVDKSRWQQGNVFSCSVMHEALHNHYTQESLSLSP
light: DIVMTQSPLSLPVTPGEPASISCQASESLVHSNRNTYLHWYLQKPGQSPQLLIYKVSNRFSGVPDRFSGSGSGTDFTLKISRVEAEDVGVYYCSQNTHVPPTFGQGTKVEIERTVAAPSVFIFPPSDEQLKSGTASVVCLLNNFYPREAKVQWKVDNALQSGNSQESVTEQDSKDSTYSLSSTLTLSKADYEKHKVYACEVTHQGLSSPVTKSFNRGEC
notes: mutation in both H chains; also called Ho Ab S298_19Q; S298Q
B10: GpH7-B3 variant S324_02A/GpL16-k0 (antibody, human IgG1, kappa)
heavy: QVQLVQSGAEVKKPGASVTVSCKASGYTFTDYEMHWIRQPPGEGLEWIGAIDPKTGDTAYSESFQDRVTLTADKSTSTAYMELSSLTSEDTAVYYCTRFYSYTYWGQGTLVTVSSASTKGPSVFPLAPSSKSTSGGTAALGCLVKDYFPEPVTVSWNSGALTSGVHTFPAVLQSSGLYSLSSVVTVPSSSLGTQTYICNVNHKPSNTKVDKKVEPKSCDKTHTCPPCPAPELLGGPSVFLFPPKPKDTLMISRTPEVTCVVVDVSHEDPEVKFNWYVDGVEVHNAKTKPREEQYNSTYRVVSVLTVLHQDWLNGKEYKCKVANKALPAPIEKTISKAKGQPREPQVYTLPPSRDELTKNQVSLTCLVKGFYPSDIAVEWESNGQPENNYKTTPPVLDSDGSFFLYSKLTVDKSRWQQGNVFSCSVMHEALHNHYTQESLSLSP
light: DIVMTQSPLSLPVTPGEPASISCQASESLVHSNRNTYLHWYLQKPGQSPQLLIYKVSNRFSGVPDRFSGSGSGTDFTLKISRVEAEDVGVYYCSQNTHVPPTFGQGTKVEIERTVAAPSVFIFPPSDEQLKSGTASVVCLLNNFYPREAKVQWKVDNALQSGNSQESVTEQDSKDSTYSLSSTLTLSKADYEKHKVYACEVTHQGLSSPVTKSFNRGEC
notes: mutation in both H chains; also called Ho Ab S324_02A; S324A
B11: GpH7-B3 variant S324_08L/GpL16-k0 (antibody, human IgG1, kappa)
heavy: not shown
light: DIVMTQSPLSLPVTPGEPASISCQASESLVHSNRNTYLHWYLQKPGQSPQLLIYKVSNRFSGVPDRFSGSGSGTDFTLKISRVEAEDVGVYYCSQNTHVPPTFGQGTKVEIERTVAAPSVFIFPPSDEQLKSGTASVVCLLNNFYPREAKVQWKVDNALQSGNSQESVTEQDSKDSTYSLSSTLTLSKADYEKHKVYACEVTHQGLSSPVTKSFNRGEC
notes: mutation in both H chains; also called Ho Ab S324_08L; S324L
B12: GpH7-B3 variant S298_18N/GpL16-k0 (antibody, human IgG1, kappa)
heavy: not shown
light: DIVMTQSPLSLPVTPGEPASISCQASESLVHSNRNTYLHWYLQKPGQSPQLLIYKVSNRFSGVPDRFSGSGSGTDFTLKISRVEAEDVGVYYCSQNTHVPPTFGQGTKVEIERTVAAPSVFIFPPSDEQLKSGTASVVCLLNNFYPREAKVQWKVDNALQSGNSQESVTEQDSKDSTYSLSSTLTLSKADYEKHKVYACEVTHQGLSSPVTKSFNRGEC
notes: mutation in both H chains; also called Ho Ab S298_18N; S298N
B13: GpH7-B3 variant S298_15Y/GpL16-k0 (antibody, human IgG1, kappa)
heavy: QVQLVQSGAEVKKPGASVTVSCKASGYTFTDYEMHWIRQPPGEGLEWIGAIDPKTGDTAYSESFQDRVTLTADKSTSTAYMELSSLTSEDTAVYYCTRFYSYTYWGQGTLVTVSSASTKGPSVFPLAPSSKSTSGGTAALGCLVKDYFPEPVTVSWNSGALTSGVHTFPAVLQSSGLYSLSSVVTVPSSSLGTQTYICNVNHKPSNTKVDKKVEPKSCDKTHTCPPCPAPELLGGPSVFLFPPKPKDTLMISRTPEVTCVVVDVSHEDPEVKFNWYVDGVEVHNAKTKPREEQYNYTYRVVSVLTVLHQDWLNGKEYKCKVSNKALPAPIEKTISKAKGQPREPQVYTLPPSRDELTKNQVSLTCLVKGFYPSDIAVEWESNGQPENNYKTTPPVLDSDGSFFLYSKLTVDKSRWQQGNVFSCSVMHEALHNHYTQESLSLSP
light: DIVMTQSPLSLPVTPGEPASISCQASESLVHSNRNTYLHWYLQKPGQSPQLLIYKVSNRFSGVPDRFSGSGSGTDFTLKISRVEAEDVGVYYCSQNTHVPPTFGQGTKVEIERTVAAPSVFIFPPSDEQLKSGTASVVCLLNNFYPREAKVQWKVDNALQSGNSQESVTEQDSKDSTYSLSSTLTLSKADYEKHKVYACEVTHQGLSSPVTKSFNRGEC
notes: mutation in both H chains; also called Ho Ab S298_15Y; S298Y
B14: GpH7-B3 variant S298_14T/GpL16-k0 (antibody, human IgG1, kappa)
heavy: not shown
light: DIVMTQSPLSLPVTPGEPASISCQASESLVHSNRNTYLHWYLQKPGQSPQLLIYKVSNRFSGVPDRFSGSGSGTDFTLKISRVEAEDVGVYYCSQNTHVPPTFGQGTKVEIERTVAAPSVFIFPPSDEQLKSGTASVVCLLNNFYPREAKVQWKVDNALQSGNSQESVTEQDSKDSTYSLSSTLTLSKADYEKHKVYACEVTHQGLSSPVTKSFNRGEC
notes: mutation in both H chains; also called Ho Ab S298_14T; S298T
B15: GpH7-B3 variant S298_04F/GpL16-k0 (antibody, human IgG1, kappa)
heavy: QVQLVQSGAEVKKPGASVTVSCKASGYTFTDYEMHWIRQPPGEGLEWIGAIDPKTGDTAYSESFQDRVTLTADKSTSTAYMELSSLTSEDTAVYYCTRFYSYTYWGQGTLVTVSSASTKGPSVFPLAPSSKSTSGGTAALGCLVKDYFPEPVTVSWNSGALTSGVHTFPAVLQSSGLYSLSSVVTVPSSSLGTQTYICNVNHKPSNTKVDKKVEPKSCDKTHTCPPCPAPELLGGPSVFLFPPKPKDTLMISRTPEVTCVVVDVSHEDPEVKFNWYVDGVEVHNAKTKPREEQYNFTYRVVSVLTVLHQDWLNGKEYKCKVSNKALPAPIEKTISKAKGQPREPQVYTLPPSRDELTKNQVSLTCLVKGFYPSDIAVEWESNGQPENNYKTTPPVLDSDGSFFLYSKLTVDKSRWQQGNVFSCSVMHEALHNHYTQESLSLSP
light: DIVMTQSPLSLPVTPGEPASISCQASESLVHSNRNTYLHWYLQKPGQSPQLLIYKVSNRFSGVPDRFSGSGSGTDFTLKISRVEAEDVGVYYCSQNTHVPPTFGQGTKVEIERTVAAPSVFIFPPSDEQLKSGTASVVCLLNNFYPREAKVQWKVDNALQSGNSQESVTEQDSKDSTYSLSSTLTLSKADYEKHKVYACEVTHQGLSSPVTKSFNRGEC
notes: mutation in both H chains; also called Ho Ab S298_04F; S298F
B16: GpH7-B3 variant S298_20W/GpL16-k0 (antibody, human IgG1, kappa)
heavy: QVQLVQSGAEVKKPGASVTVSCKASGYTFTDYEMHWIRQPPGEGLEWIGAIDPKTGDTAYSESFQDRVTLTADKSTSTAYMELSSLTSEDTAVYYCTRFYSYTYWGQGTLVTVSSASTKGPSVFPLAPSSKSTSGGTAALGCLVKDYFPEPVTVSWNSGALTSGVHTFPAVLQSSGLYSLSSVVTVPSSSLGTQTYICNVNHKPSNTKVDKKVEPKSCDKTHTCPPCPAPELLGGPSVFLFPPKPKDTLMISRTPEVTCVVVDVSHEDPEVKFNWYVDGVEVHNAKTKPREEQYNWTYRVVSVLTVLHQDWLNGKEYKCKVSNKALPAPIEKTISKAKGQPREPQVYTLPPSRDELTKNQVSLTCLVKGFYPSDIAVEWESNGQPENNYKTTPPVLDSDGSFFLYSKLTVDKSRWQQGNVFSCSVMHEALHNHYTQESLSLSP
light: DIVMTQSPLSLPVTPGEPASISCQASESLVHSNRNTYLHWYLQKPGQSPQLLIYKVSNRFSGVPDRFSGSGSGTDFTLKISRVEAEDVGVYYCSQNTHVPPTFGQGTKVEIERTVAAPSVFIFPPSDEQLKSGTASVVCLLNNFYPREAKVQWKVDNALQSGNSQESVTEQDSKDSTYSLSSTLTLSKADYEKHKVYACEVTHQGLSSPVTKSFNRGEC
notes: mutation in both H chains; also called Ho Ab S298_20W; S298W

The target of this test is T1, FcγRIa extracellular domain with C-terminal His tag (human, UniProt P12314 16-292).
T1 construct: extracellular domain; also called FcgRI; CD64; not shown: His tag at the C terminus
T1 sequence (P12314 16-292): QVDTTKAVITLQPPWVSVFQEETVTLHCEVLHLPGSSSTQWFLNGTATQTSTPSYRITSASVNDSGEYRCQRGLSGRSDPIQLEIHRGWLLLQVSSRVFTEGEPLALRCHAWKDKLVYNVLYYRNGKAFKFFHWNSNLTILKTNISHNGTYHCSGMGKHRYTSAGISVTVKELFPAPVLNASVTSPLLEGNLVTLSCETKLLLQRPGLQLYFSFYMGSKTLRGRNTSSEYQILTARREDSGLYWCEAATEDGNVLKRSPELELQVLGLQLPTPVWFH
As to the kind of experiment: SPR Biacore, relative FcγRIa binding vs GpH7-B3/GpL16-k0. In general terms: In SPR one partner is held on a chip, and binding of the other changes the refractive index at the surface.
Take B1: the Ho/Con_1a was 106 % of HoCon Ab (=100).
On to B2, for which the Ho/Con_1a was 103 % of HoCon Ab (=100).
The figure for B3 is 106 % of HoCon Ab (=100); for B4 it is 107 % of HoCon Ab (=100); for B5 it is 94.5 % of HoCon Ab (=100).
As for B6, the figure is 104 % of HoCon Ab (=100); as for B7, 106 % of HoCon Ab (=100).
The figure for B8 is 103 % of HoCon Ab (=100).
On to B9, for which the Ho/Con_1a is 105 % of HoCon Ab (=100).
As for B10, the figure is 103 % of HoCon Ab (=100); as for B11, 103 % of HoCon Ab (=100).
The figure for B12 is 104 % of HoCon Ab (=100); for B13 it is 103 % of HoCon Ab (=100); for B14 it is 106 % of HoCon Ab (=100).
For B15, the Ho/Con_1a was 107 % of HoCon Ab (=100).
For B16, the Ho/Con_1a is 71.5 % of HoCon Ab (=100).
